The subject of the series is MS2 coat protein. As to the kind of experiment: apparent KD of MS2 coat protein; designed switch direction (-1 OFF switch, 1 ON switch): -1; higher = weaker reporter binding. A digest of the protocol: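 The buffer was Tris-HCl pH 7.5 with KCl, MgCl2, BSA, DTT, tRNA and Tween-20. In it, SNAP-549-labelled MS2 coat protein was titrated in doubling steps from 0.7 or 1.5 nM to 3 µM over chip-bound RNA switches transcribed by stalled E. coli RNA polymerase on Illumina chips. Apparent KD is the per-design median over clusters of curve fits to normalised fluorescence.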

Setting [1] is: input ligand: microRNA oligo, concentration not stated.
[2] abbreviates: Eterna round: R95, input ligand: microRNA oligo, concentration not stated.
Where [3] appears, read: Eterna round: R95, input ligand: FMN 200 uM.
[4] abbreviates: Eterna round: R95, input ligand: none.

Take “AGCUGUGGCCGAGGAUAUGACAUGAGGAUCACCCAUGUACGUAAUUAGGCCUGGUAACAGGCUCGUCAGAAGGCGGUCUCAGCA [Eli eng2 - 008] (Eterna round: R96, puzzle: Exclusion NG 2)”: the “apparent KD of MS2 coat protein” value by setting is: (input ligand: FMN 200 uM) 12.2 nM; under setting [1], 7.43 nM; (input ligand: none) 15.3 nM.
“CUGAGCUGAGGAUAUACAUGAGGAUCACCCAUGUUUUGUAGAUAGUGAAGAAGUAGAUGUAGAAGGCAGUUCGG [Mod of JL 24 - Jieux - Exclusion 3] (Eterna round: R97, puzzle: Exclusion 3)”: the “apparent KD of MS2 coat protein” value was determined as 206 nM (input ligand: FMN 200 uM) and 146 nM (input ligand: none).
For “GUGUAGUCAGGAUAUACAUAGGAAGAGAAGAGAAGAUAAGCACAUGAGGAUCACCCAUGUAGAAGGGACAGUGU [Excluse me!! 3 - Jieux - Exclusion 2] (puzzle: Exclusion 2)”, under setting [2], the “apparent KD of MS2 coat protein” value came out at 57.4 nM.
Still for that read-out and setting: the figure for “AAUAACAGAGGAUAUACUAUUUUAUGUGUUUAUUGUUUUAAACAUGAGGAUCACCCAUGUAGAAGGCUGAAUGA [JMF 59] (puzzle: Exclusion 2)” is 34.4 nM.
Regarding “AGCAGACGAGGAUAUAAAUUUAAAUACAUGAGGAUCACCCAUGUAUAAAUGUAUUUAAAUUUAGAAGGCGUCUGCU [E5/12-A1] (Eterna round: R97, puzzle: Exclusion 5)”, the “apparent KD of MS2 coat protein” value reads like this: (input ligand: FMN 200 uM) 793 nM; (input ligand: none) 710 nM.
On the same counts, the results for “UAAAGUAUAUAGGAUAUCUAGCUGGAUACAGCUAGAGAAGGAUGUACAUGAGGAUCACCCAUGUAAAUCAGUGA [Ex6/14-A3] (Eterna round: R97, puzzle: Exclusion 6)” are 33.9 nM and 16.5 nM.
For “GGGCCCGGAGGAUAUACAUGAGGAUCACCCAUGUAGGGCCCGGGUAUUCCCGGGUUUUGUAGAAGGCCGGGUUU [-33.8, -30.7 kcal, A 19%, 5a,5a] (Eterna round: R97, puzzle: Exclusion 3)”, in that order: 25.1 nM and 14.8 nM.
As to “UCGAUGUGAGGAUAUAUAUGCAGUAGUCCUUGUGUUUUAUAACUUGAGGAUCACCCAAGUAGAAGGCGCGACGU [JR_Ex2_Sub059] (Eterna round: R97, puzzle: Exclusion 2)”, the “apparent KD of MS2 coat protein” value runs as follows: (input ligand: FMN 200 uM) 37 nM; (input ligand: none) 33.5 nM.
With “CAUUUCUGUCGUUGAUCCAACAUGAGGAUCACCCAUGUCUCUUUAGCUUUUUGCUCGUCUUAUCCUCCUUUGUUCAC [JR_STOV1_Sub099] (Eterna round: R97, puzzle: Sensor, turn-off variant 1)”, the “apparent KD of MS2 coat protein” value by setting is: (input ligand: FMN 200 uM) 499 nM; (input ligand: none) 835 nM.
For “AAAUUAGCAAGUAGGUCCGACAUGAGGAUCACCCAUGUAAUCUAAUAUUACGCUGCAUGAGAGUGCGCUCGUCUUAA [Sensor-V1 #18] (Eterna round: R97, puzzle: Sensor, turn-off variant 1)”, in that order: 196 nM and 220 nM.
Regarding “CUGGUCCGAGGAUAUAUUAAGUGAUACAUGAGGAUCACCCAUGUAAUUUAAUGGAAAUAAAUAGAAGGCGGACUAG [Mat - Exclusion 5 - JL mod - D51] (puzzle: Exclusion 5)”, the “apparent KD of MS2 coat protein” value was 30 nM under setting [3], 65.3 nM under setting [2] and 62.5 nM under setting [4].
As to “AGGAGUAGUAAGGAUAUAGCGGACUAGUCGUCGUUAGAAGGUACUACAUGAGGAUCACCCAUGUUGACCUGAGC [EX6 B.14] (Eterna round: R97, puzzle: Exclusion 6)”, the “apparent KD of MS2 coat protein” value is, setting by setting: (input ligand: FMN 200 uM) 46.5 nM; (input ligand: none) 19.6 nM.
As for “AAUAAUUGUGACUUGGGUGACAUGAGGAUCACCCAUGUUACAAGCUUGUUGCUCGUCUUAUAAUUAACCCAUGUCAC [LRO Sensor-off var1-24 mod of Stov1-13-A1 by Brourd] (Eterna round: R97, puzzle: Sensor, turn-off variant 1)”, the “apparent KD of MS2 coat protein” value (input ligand: FMN 200 uM) was 21.1 nM and the “apparent KD of MS2 coat protein” value (input ligand: none) was determined as 21.9 nM.
For “AGAUUACAUGAGGAUCACCCAUGUCAGGAUAUCGACUGAACAGCUUCGGCUGUUCAGUCGAGAAGGGACAAUUA [Brourdxlusion 10 - Jieux - Exclusion 1] (Eterna round: R97, puzzle: Exclusion 1)”, in that order: 122 nM and 59.7 nM.
Regarding “UUAGAUUAUGAAGGAUAUGGAUCUUAUUAUUAACCAGAAGGUCAACUCAACAUGAGGAUCACCCAUGUAUAAAGGGUAUUAGUU (Eterna round: R96, puzzle: Exclusion NG 1)”, the “apparent KD of MS2 coat protein” value under setting [1] turned out to be 109 nM.
As for “GCAGCAUAGUAAACAUACUGUUACAUGAGGAUCACCCAUGUACAGGAUAUGGUCUGGAUUACAGGCCAGAAGGGUACAAGCUGC [Eli exng3 - 023] (Eterna round: R96, puzzle: Exclusion NG 3)”, the “apparent KD of MS2 coat protein” value stood at 8.36 nM (input ligand: FMN 200 uM), 13 nM under setting [1] and 12.8 nM (input ligand: none).
For the sequence “AACUAUUUAGGAUAUCAGGCGAACCACAUGAGGAUCACCCAUGUGGCCCGUUGUGGUCCUUGAGAAGGAAAGAGUU [EX5 B.15] (Eterna round: R97, puzzle: Exclusion 5)”, the “apparent KD of MS2 coat protein” value (input ligand: FMN 200 uM) worked out at 53.5 nM and the “apparent KD of MS2 coat protein” value (input ligand: none) came to 22.7 nM.
“GAAAAUGUGGAGGAUAUCGACUUCGAAAGAAGUCGAGAAGGCCACACAUGAGGAUCACCCAUGUGAUGCCUAUA [Omei Ex6 H8] (Eterna round: R97, puzzle: Exclusion 6)”: the “apparent KD of MS2 coat protein” value reads like this: (input ligand: FMN 200 uM) 774 nM; (input ligand: none) 230 nM.
On the same counts, the results for “UGCAGACGAGGAUAUAGAUUUGAUAACAUGAGGAUCACCCAUGUGAUCGAUAGAUCAGAUUUAGAAGGCGUCUGCA [E5/8-A2] (Eterna round: R97, puzzle: Exclusion 5)” are 628 nM and 529 nM.
On to “AGUACUAACACGAAAGUGUUAGUACUAUAAGCUUGUGAUACAUGAGGAUCACCCAUGUCCUCAUAAGCUCGUCUUAU [Mat - Sensor v3 - Turn-off var 2 - D101] (puzzle: Sensor v3, turn-off variant 2)”, for which the “apparent KD of MS2 coat protein” value under setting [3] was found to be 19 nM, the “apparent KD of MS2 coat protein” value under setting [2] stood at 1820 nM and the “apparent KD of MS2 coat protein” value under setting [4] stood at 19.6 nM.
As to “AAAUAUCAUGUAGGAUAUGGAAGGCGAACCUAUCCAGAAGGACAUGAGGAUCACCCAUGUGCUGCGUUGUCCGUAGACAGCGCU [Ex NG1 #2] (Eterna round: R96, puzzle: Exclusion NG 1)”, the “apparent KD of MS2 coat protein” value was 88.2 nM (input ligand: FMN 200 uM), 21.1 nM under setting [1] and 31.4 nM (input ligand: none).
With “UAAAACGGAGGAUAUACUGACCCUCAAAACAGACGCGCUGGACAUGAGGAUCACCCAUGUAGAAGGCCGAAUGC [Titeustele] (puzzle: Exclusion 2)”, the “apparent KD of MS2 coat protein” value under setting [2] is 21.7 nM.
Consider “AUUUAGCAAGUUAGAUCCUACAUGAGGAUCACCCAUGUUGUUCGUCUCAUUUGAAGACAACACAAAAGUGUUGUCUU [Omei Mir OFFv1 B4] (Eterna round: R97, puzzle: Sensor, turn-off variant 1)”, for which the “apparent KD of MS2 coat protein” value is, setting by setting: (input ligand: FMN 200 uM) 112 nM; (input ligand: none) 126 nM.
For “UAAUGUAUAUAGGAUAUCUAGCUGGAAACAGCUAGAGAAGGAUGUACAUGAGGAUCACCCAUGUAAAUCUCAAU [Ex6/12-B1] (Eterna round: R97, puzzle: Exclusion 6)”, in that order: 27.4 nM and 19.1 nM.
On the same counts, the results for “GCCAGCGUAUAGGAUAUGGCCGGCUUUUGAGUACCAGAAGGAUACACAUGAGGAUCACCCAUGUGGCAUUCGUC [Eternabot (L2) Solution 71] (Eterna round: R97, puzzle: Exclusion 6)” are 20.5 nM and 14.7 nM.
For “AGUACUAACACGAAAGUGUUAGUACAAUAAGCUUGUGUUACAUGAGGAUCACCCAUGUCCUCAUAAGCUCGUCUUAU [JL-sv3-2.14 mat747 mod] (puzzle: Sensor v3, turn-off variant 2)”, the “apparent KD of MS2 coat protein” value worked out at 100 nM under setting [3], 48.5 nM under setting [2] and 98.1 nM under setting [4].
For “CAUGUUUGUCGUUGAUCCAACAUGAGGAUCACCCAUGUCUCUUUAGCUUUUUGCUCGUCUUAUCCUCCUUUGUUCAC [JR_STOV1_v2_Sub0101] (Eterna round: R97, puzzle: Sensor, turn-off variant 1)”, the “apparent KD of MS2 coat protein” value runs as follows: (input ligand: FMN 200 uM) 65.5 nM; (input ligand: none) 401 nM.
For “AAACCUGAAGUCAGGAUAUGAAGUAUCACUGUACUUCAGAAGGGACUUGAGGAUCACCCAAGUAGCCGUGAGGC [jl-bmx4.4.67 ViennaUCT mod] (Eterna round: R97, puzzle: Brourd's mod of Exclusion 4)”, in that order: 116 nM and 28.8 nM.
Consider “GGUUAUUGCAAGGAUAUGCUUAUUUGAGAAAUUGCAGAAGGUGCAACAUGAGGAUCACCCAUGUUGGAUGGGUU [JR_E6_Sub016] (puzzle: Exclusion 6)”, for which the “apparent KD of MS2 coat protein” value under setting [2] turned out to be 60.7 nM.
As to “UCGUUCCGUGUAGGAUAUUGGCCUUCCUUGGGCCGAGAAGGACAUGAGGAUCACCCAUGUAUGUUAUUAUCGCGCGUGGCGCAU [Design 87] (Eterna round: R96, puzzle: Exclusion NG 1)”, the “apparent KD of MS2 coat protein” value runs as follows: (input ligand: FMN 200 uM) 97.1 nM; under setting [1], 13.3 nM; (input ligand: none) 18.6 nM.
As for “UUAUAUAGGUAGGAUAUCGAUUUUAAUUAAUUUCGAGAAGGGUCAACAUGAGGAUCACCCAUGUCAGCAUGUAU [LRO-Excl6-05-Rocketman] (Eterna round: R97, puzzle: Exclusion 6)”, the “apparent KD of MS2 coat protein” value reads like this: (input ligand: FMN 200 uM) 45.6 nM; (input ligand: none) 51.4 nM.

For the origin of these results see the supplement of paper PMC9170038.
